T1: DFNB31_2, Q9P202
T1 sequence (Q9P202 274-371, limits assumed, looked up): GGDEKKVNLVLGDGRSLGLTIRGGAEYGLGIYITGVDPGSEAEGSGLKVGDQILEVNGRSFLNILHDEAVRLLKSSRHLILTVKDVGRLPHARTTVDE

T2: NHERF3_1, Q5T2W1
T2 sequence (Q5T2W1 4-100, limits assumed, looked up): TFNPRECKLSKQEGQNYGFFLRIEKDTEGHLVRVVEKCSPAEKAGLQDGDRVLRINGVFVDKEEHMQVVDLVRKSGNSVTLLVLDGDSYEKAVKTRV

T3: HTRA4, P83105
T3 sequence (P83105 378-476, limits assumed, looked up): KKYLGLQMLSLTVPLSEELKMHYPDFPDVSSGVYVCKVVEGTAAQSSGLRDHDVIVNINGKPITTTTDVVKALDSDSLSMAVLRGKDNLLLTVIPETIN

T4: MPDZ_10, O75970
T4 sequence (O75970 1624-1722, limits assumed, looked up): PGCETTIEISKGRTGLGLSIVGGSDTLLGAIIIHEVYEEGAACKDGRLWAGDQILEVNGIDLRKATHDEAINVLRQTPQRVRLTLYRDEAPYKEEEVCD

T5: RAPGEF6, Q8TEU7
T5 sequence (Q8TEU7 525-625, limits assumed, looked up): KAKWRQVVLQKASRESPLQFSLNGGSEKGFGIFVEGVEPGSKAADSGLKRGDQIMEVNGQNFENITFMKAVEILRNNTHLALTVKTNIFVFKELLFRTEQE

T6: DVL3, Q92997
T6 sequence (Q92997 244-331, limits assumed, looked up): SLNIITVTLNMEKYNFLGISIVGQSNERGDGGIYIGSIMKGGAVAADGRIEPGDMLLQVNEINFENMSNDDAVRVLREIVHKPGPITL

T7: LIN7B, Q9HAP6
T7 sequence (Q9HAP6 88-185, limits assumed, looked up): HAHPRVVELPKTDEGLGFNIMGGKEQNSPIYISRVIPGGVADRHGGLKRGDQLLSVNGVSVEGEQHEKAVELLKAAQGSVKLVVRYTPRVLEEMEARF

T8: SNTA1, Q13424
T8 sequence (Q13424 82-180, limits assumed, looked up): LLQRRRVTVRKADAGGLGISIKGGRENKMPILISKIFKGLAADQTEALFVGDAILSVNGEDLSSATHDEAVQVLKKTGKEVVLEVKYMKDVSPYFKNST

T9: SNTG1, Q9NSN8
T9 sequence (Q9NSN8 52-150, limits assumed, looked up): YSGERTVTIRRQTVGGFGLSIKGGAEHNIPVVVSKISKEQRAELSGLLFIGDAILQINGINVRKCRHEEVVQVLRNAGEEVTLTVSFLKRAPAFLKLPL

T10: SNTG2, Q9NY99
T10 sequence (Q9NY99 68-166, limits assumed, looked up): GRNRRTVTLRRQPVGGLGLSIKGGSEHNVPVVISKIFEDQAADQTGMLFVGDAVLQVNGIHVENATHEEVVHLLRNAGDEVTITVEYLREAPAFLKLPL

T11: TIAM2, Q8IVF5
T11 sequence (Q8IVF5 885-986, limits assumed, looked up): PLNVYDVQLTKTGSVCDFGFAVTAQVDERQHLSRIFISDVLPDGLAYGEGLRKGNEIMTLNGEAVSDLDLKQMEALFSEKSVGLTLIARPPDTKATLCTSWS

T12: DFNB31_1, Q9P202
T12 sequence (Q9P202 135-233, limits assumed, looked up): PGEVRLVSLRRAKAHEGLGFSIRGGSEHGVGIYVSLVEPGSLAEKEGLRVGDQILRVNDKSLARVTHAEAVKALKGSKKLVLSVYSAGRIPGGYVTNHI

T13: DLG3_3, Q92796
T13 sequence (Q92796 374-475, limits assumed, looked up): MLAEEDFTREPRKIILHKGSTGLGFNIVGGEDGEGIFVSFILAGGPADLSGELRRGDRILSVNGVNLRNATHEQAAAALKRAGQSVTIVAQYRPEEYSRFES

B1: POLR1D, P0DPB6 (peptide)
chain: QKASRNESTF

Target: T1, DFNB31_2, Q9P202
Test: holdup assay
Design: key: below the threshold = too weak to quantify, mostly under pKd 3.1 to 4
Conditions: plain residues with an end cap or a label only (N-terminal biotin on a linker: ado-ado)

Row | pKd | Binder
1 | below the threshold | B1

Target: T2, NHERF3_1, Q5T2W1
Test: holdup assay
Design: key: below the threshold = too weak to quantify, mostly under pKd 3.1 to 4
Conditions: plain residues with an end cap or a label only (N-terminal biotin on a linker: ado-ado)

Row | pKd | Binder
2 | below the threshold | B1

Target: T3, HTRA4, P83105
Test: holdup assay
Design: key: below the threshold = too weak to quantify, mostly under pKd 3.1 to 4
Conditions: plain residues with an end cap or a label only (N-terminal biotin on a linker: ado-ado)

Row | pKd | Binder
3 | below the threshold | B1

Target: PDLIM1, O00151
Test: holdup assay
Design: key: below the threshold = too weak to quantify, mostly under pKd 3.1 to 4
Conditions: plain residues with an end cap or a label only (N-terminal biotin on a linker: ado-ado)

PDLIM1, O00151, sequence (O00151 1-87): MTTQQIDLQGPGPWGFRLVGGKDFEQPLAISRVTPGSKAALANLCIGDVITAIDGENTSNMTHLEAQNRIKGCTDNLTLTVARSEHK

Row | pKd | Binder
4 | below the threshold | B1

Target: T4, MPDZ_10, O75970
Test: holdup assay
Design: key: below the threshold = too weak to quantify, mostly under pKd 3.1 to 4
Conditions: plain residues with an end cap or a label only (N-terminal biotin on a linker: ado-ado)

Row | pKd | Binder
5 | below the threshold | B1

Target: T5, RAPGEF6, Q8TEU7
Test: holdup assay
Design: key: below the threshold = too weak to quantify, mostly under pKd 3.1 to 4
Conditions: plain residues with an end cap or a label only (N-terminal biotin on a linker: ado-ado)

Row | pKd | Binder
6 | below the threshold | B1

Target: T6, DVL3, Q92997
Test: holdup assay
Design: key: below the threshold = too weak to quantify, mostly under pKd 3.1 to 4
Conditions: plain residues with an end cap or a label only (N-terminal biotin on a linker: ado-ado)

Row | pKd | Binder
7 | below the threshold | B1

Target: NOS1, P29475
Test: holdup assay
Design: key: below the threshold = too weak to quantify, mostly under pKd 3.1 to 4
Conditions: plain residues with an end cap or a label only (N-terminal biotin on a linker: ado-ado)

NOS1, P29475, sequence (P29475 9-101): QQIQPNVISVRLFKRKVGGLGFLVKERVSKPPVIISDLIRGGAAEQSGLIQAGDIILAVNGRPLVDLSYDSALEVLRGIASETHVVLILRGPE

Row | pKd | Binder
8 | below the threshold | B1

Target: IL16_4, Q14005
Test: holdup assay
Design: key: below the threshold = too weak to quantify, mostly under pKd 3.1 to 4
Conditions: plain residues with an end cap or a label only (N-terminal biotin on a linker: ado-ado)

IL16_4, Q14005, sequence (Q14005 1229-1329): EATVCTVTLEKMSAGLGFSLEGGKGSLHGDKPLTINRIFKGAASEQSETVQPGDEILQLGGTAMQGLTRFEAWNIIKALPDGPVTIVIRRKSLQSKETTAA

Row | pKd | Binder
9 | below the threshold | B1

Target: T7, LIN7B, Q9HAP6
Test: holdup assay
Design: key: below the threshold = too weak to quantify, mostly under pKd 3.1 to 4
Conditions: plain residues with an end cap or a label only (N-terminal biotin on a linker: ado-ado)

Row | pKd | Binder
10 | 3.96 | B1

Target: T8, SNTA1, Q13424
Test: holdup assay
Design: key: below the threshold = too weak to quantify, mostly under pKd 3.1 to 4
Conditions: plain residues with an end cap or a label only (N-terminal biotin on a linker: ado-ado)

Row | pKd | Binder
11 | below the threshold | B1

Target: IL16_1, Q14005
Test: holdup assay
Design: key: below the threshold = too weak to quantify, mostly under pKd 3.1 to 4
Conditions: plain residues with an end cap or a label only (N-terminal biotin on a linker: ado-ado)

IL16_1, Q14005, sequence (Q14005 210-306): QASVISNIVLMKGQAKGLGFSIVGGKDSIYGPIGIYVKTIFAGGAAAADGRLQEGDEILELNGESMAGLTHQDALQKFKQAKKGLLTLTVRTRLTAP

Row | pKd | Binder
12 | below the threshold | B1

Target: T9, SNTG1, Q9NSN8
Test: holdup assay
Design: key: below the threshold = too weak to quantify, mostly under pKd 3.1 to 4
Conditions: plain residues with an end cap or a label only (N-terminal biotin on a linker: ado-ado)

Row | pKd | Binder
13 | below the threshold | B1

Target: GORASP2, Q9H8Y8
Test: holdup assay
Design: key: below the threshold = too weak to quantify, mostly under pKd 3.1 to 4
Conditions: plain residues with an end cap or a label only (N-terminal biotin on a linker: ado-ado)

Row | pKd | Binder
14 | below the threshold | B1

Target: SCRIB_1, Q14160
Test: holdup assay
Design: key: below the threshold = too weak to quantify, mostly under pKd 3.1 to 4
Conditions: plain residues with an end cap or a label only (N-terminal biotin on a linker: ado-ado)

SCRIB_1, Q14160, sequence (Q14160 718-814): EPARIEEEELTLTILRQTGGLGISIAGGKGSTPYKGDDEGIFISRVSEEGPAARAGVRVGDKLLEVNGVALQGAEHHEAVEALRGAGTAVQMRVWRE

Row | pKd | Binder
15 | 3.55 | B1

Target: T10, SNTG2, Q9NY99
Test: holdup assay
Design: key: below the threshold = too weak to quantify, mostly under pKd 3.1 to 4
Conditions: plain residues with an end cap or a label only (N-terminal biotin on a linker: ado-ado)

Row | pKd | Binder
16 | below the threshold | B1

Target: DLG5_1, Q8TDM6
Test: holdup assay
Design: key: below the threshold = too weak to quantify, mostly under pKd 3.1 to 4
Conditions: plain residues with an end cap or a label only (N-terminal biotin on a linker: ado-ado)

DLG5_1, Q8TDM6, sequence (Q8TDM6 617-713): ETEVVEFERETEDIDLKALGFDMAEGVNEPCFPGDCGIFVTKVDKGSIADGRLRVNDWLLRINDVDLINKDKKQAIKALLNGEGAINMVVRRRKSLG

Row | pKd | Binder
17 | below the threshold | B1

Target: PARD3_3, Q8TEW0
Test: holdup assay
Design: key: below the threshold = too weak to quantify, mostly under pKd 3.1 to 4
Conditions: plain residues with an end cap or a label only (N-terminal biotin on a linker: ado-ado)

PARD3_3, Q8TEW0, sequence (Q8TEW0 582-685): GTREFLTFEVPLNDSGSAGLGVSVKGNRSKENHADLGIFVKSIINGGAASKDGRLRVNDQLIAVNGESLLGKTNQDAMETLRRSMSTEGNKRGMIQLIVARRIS

Row | pKd | Binder
18 | below the threshold | B1

Target: GRIP2_5, Q9C0E4
Test: holdup assay
Design: key: below the threshold = too weak to quantify, mostly under pKd 3.1 to 4
Conditions: plain residues with an end cap or a label only (N-terminal biotin on a linker: ado-ado)

GRIP2_5, Q9C0E4, sequence (Q9C0E4 544-642): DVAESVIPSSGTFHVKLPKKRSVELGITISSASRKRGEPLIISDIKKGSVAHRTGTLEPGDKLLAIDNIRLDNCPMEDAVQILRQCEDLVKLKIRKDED

Row | pKd | Binder
19 | below the threshold | B1

Target: T11, TIAM2, Q8IVF5
Test: holdup assay
Design: key: below the threshold = too weak to quantify, mostly under pKd 3.1 to 4
Conditions: plain residues with an end cap or a label only (N-terminal biotin on a linker: ado-ado)

Row | pKd | Binder
20 | 3.92 | B1

Target: T12, DFNB31_1, Q9P202
Test: holdup assay
Design: key: below the threshold = too weak to quantify, mostly under pKd 3.1 to 4
Conditions: plain residues with an end cap or a label only (N-terminal biotin on a linker: ado-ado)

Row | pKd | Binder
21 | below the threshold | B1

Target: FRMPD2_3, Q68DX3
Test: holdup assay
Design: key: below the threshold = too weak to quantify, mostly under pKd 3.1 to 4
Conditions: plain residues with an end cap or a label only (N-terminal biotin on a linker: ado-ado)

FRMPD2_3, Q68DX3, sequence (Q68DX3 1073-1166): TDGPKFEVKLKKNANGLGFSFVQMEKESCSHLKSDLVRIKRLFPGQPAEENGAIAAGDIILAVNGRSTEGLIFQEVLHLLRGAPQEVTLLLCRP

Row | pKd | Binder
22 | below the threshold | B1

Target: T13, DLG3_3, Q92796
Test: holdup assay
Design: key: below the threshold = too weak to quantify, mostly under pKd 3.1 to 4
Conditions: plain residues with an end cap or a label only (N-terminal biotin on a linker: ado-ado)

Row | pKd | Binder
23 | 3.6 | B1

Target: LIMK2, P53671
Test: holdup assay
Design: key: below the threshold = too weak to quantify, mostly under pKd 3.1 to 4
Conditions: plain residues with an end cap or a label only (N-terminal biotin on a linker: ado-ado)

LIMK2, P53671, sequence (P53671 143-248): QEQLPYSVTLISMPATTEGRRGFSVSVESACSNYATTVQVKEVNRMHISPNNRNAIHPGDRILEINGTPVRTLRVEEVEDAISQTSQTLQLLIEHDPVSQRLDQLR

Row | pKd | Binder
24 | below the threshold | B1

Target: Inadl_8, Q8NI35
Test: holdup assay
Design: key: below the threshold = too weak to quantify, mostly under pKd 3.1 to 4
Conditions: plain residues with an end cap or a label only (N-terminal biotin on a linker: ado-ado)

Inadl_8, Q8NI35, sequence (Q8NI35 1425-1530): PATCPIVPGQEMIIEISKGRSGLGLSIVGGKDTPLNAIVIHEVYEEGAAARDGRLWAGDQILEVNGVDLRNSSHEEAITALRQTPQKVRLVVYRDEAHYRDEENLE

Row | pKd | Binder
25 | below the threshold | B1
